The values that follow come from patent US20080044436A1, “Method for Screening and Compositions for Treating Cancers” (priority 2004, published 2008).

The test system of data set [1] is proximal Sp1 response element of the p21 and p27 promoters. The data set can be described thus: Chromatin immunoprecipitation with anti-TReP-132 antibody in T47-D cells. The format is cell-based, human. The conditions noted are these: DNA from progesterone-treated vs untreated T47-D cells. As for the experimental part: FIG. 14C: Chromatin was from T47-D cells treated or not with […] progesterone. IPs were carried out with anti-TReP-132 antibodies ([…]). Controls were DNA-free PCR products (column 1, H2O), PCR products of unprecipitated genomic DNA (columns 2 and 3, input), immunoprecipitations with no antibody (columns 4 and 5, no Ab) or with irrelevant antibody (columns 6 and 7, anti-HA). The extracted DNA was amplified using the same primers as in FIG. 13C.
HTO cells incubated in the presence of Dox or T47-D cells were grown to 70% confluence in petri dishes (150 mm diameter). For HTO cells, doxycycline was removed from half of the dishes 48 hours before lysis. T47-D cells were incubated with 30 nM progesterone or with ethanol containing 0.2% BSA-RPMI for 2.5 hours before lysis. Cell lysates were then sonicated on ice, 15 times for 15 seconds at 45 second intervals. A volume of lysate corresponding to 4×10^6 cells was immunoprecipitated by using 4 μg of antibody (indicated earlier) and an anti-HA antibody as negative control. The same volume was set aside for later purification of genomic DNA. […]

The subject of a further data set is cyclin A/CDK2. In words: In vitro kinase assay of immunoprecipitated cyclin A/CDK2 (histone H1 substrate). The format is biochemical, human. The conditions noted are these: TReP-132 induced for 48 hours in HTO-GFP/TReP-132 cells. The source says:
(§1) FIG. 9A: Kinase activities of each immunoprecipitated cyclin or CDK were quantified using pRb as substrate to measure cyclin D1/CDK6 activity, or histone H1 to measure cyclin A/CDK2 activity. The levels of phosphorylation of histone H1 or pRb in induced HTO cells (HeLa Tet Off) are expressed in relation to the levels in non-induced HTO cells (corresponding to level 1.0).
(§2) Cells were washed twice with cold PBS (Phosphate Buffered Saline), then harvested either in cold RIPA buffer (1×PBS, 1% Nonidet P-40, 0.5% sodium deoxycholate, 0.1% SDS, phosphatase and protease inhibitors) for co-immunoprecipitation analysis, or in lysis buffer (50 mM Tris, pH 8.0, 0.1% IGEPAL (Sigma)) for kinase assays. […] The blots were then visualized with ECL reagent and quantified with SCANWISE and Perfect-IMAGE V-5.3 software (CLARA VISION, France).
(§3) The kinase activities on histone H1 or Rb protein in the immunoprecipitates were measured as follows: the immunoprecipitates were first washed once with 1 ml of assay buffer (50 mM Tris-HCl, pH 7.4, 10 mM MgCl2, 1 mM dithiothreitol (DTT)), then resuspended in 20 μl of assay buffer containing 1 mg/ml casein (Sigma) and 1 μg of histone H1 or Rb protein (769) (sc-4112) as substrate. […]
(§4) The reaction was stopped by addition of 15 μl of electrophoresis buffer (3×). […] Phosphorylated Rb and histones were quantified by densitometry.

The next data set has as its system cyclin D1/CDK6. The data set can be described thus: In vitro kinase assay of immunoprecipitated cyclin D1/CDK6 (pRb substrate). Conditions: TReP-132 induced for 48 hours in HTO-GFP/TReP-132 cells. The format is biochemical, human.
Description: as §1, §2, §3, §4

For the next data set, the system named is ER. In words: GST pull-down, TReP-132 and ER. Type of data set: binding. The conditions noted are these: GST pull-down with 35S-ER. As for the experimental part: GST-TReP-132 wt was analyzed in terms of the interaction with the ^35[S]-ER, as described previously.
In order to evaluate the interaction of TReP-132, Sp1, ER and PR, the wt and mutant GST-TReP-132 fusion proteins were expressed, then immobilized on glutathione-Sepharose as described (Frangioni and Neel, 1993; Monte et al., 1998). The ^35S-[Sp1], ^35S-[ER] and ^35S-[PR-B] proteins were synthesized in vitro using a rabbit reticulocyte lysate and T7 RNA polymerase system as directed by the manufacturer (Promega Corporation, Madison, Wis.). Proteins which bound, then detached from the Sepharose after being heated to boiling in SDS buffer were then separated on a 10% SDS-PAGE gel. The gels were stained with Coomassie blue, dried and autoradiographed.

As to `CC(=O)[C@H]1CC[C@H]2[C@@H]3CCC4=CC(=O)CC[C@]4(C)[C@H]3CC[C@]12C` [progesterone, reference compound], in data set [1], the “TReP-132 binding to proximal Sp1 response element of p21 and p27 promoters” value is “much more pronounced”.

B1: TReP-132: Transcriptional Regulating Protein of 132 kDa, polypeptide comprising SEQ ID NO: 2; here expressed in cells from vectors (protein)
chain: MGDQQLYKTNHVAHGSENLFYQQPPLGVHSGLNHNYGNAVTGGGMDAPQASPISPHFPQDTRDGLGLPVGSKNLGQMDTSRQGGWGSHAGPGNHVQLRGNLANSNMMWGAPAQAEPTDGYQYTYSQASEIRTQKLTSGVLHKLDSFTQVFANQNLRIQVNNMAQVLHTQSAVMDGAPDSALRQLLSQKPMEPPAPAIPSRYQQVPQQPHPGFTGGLSKPALQVGQHPTQGHLYYDYQQPLAQVPVQGGQPLQAPQMLSQHMQQMQQHQYYPPQQQQQAGQQRISMQEIQTQPQQIRPSQPQPPPQQQQPQQLQLQQRQGSMQIPQYYQPQPMMQHLQEQQQQQMHLQPPSYHRDPHQYTPEQAHTVQLIPLGSMSQYYYQEPQQPYSHPLYQQSHLSQHQQREDSQLKTYSSDRQAQAMLSSHGDLGPPDTGMGDPASSDLTRVSSTLPHRPLLSPSGIHLNNMGPQHQQLSPSAMWPQMHLPDGRAQPGSPESSGQPKGAFGEQFDAKNKLTCSICLKEFKNLPALNGHMRSHGGMRASPNLKQEEGEKVLPPQPQPPLPPPPPPPPPPQLPPEAESLTPMVMPVSVPVKLLPPKPSSQGFTNSTVAAPSARDKPASSMSDDEMPVLEIPRKHQPSVPKAEEPLKTVQEKKKFRHRPEPLFIPPPPSYNPNPAASYSGATLYQSQLRSPRVLGDHLLLDPTHELPPYTPPPMLSPVRQGSGLFSNVLISGHGPGAHPQLPLTPLTPTPRVLLCRSNSIDGSNVTVTPGPGEQTVDVEPRINIGLRFQAEIPELQDISALAQDTHKATLVWKPWPELENHDLQQRVENLLNLCCSSALPGGGTNSEFALHSLFEAKGDVMVALEMLLLRKPVRLKCHPLANYHYAGSDKWTSLERKLFNKALATYSKDFIFVQKMVKSKTVAQCVEYYYTWKKIMRLGRKHRTRLAEIIDDCVTSEEEEELEEEEEEDPEEDRKSTKEEESEVPKSPEPPPVPVLAPTEGPPLQALGQPSGSFICEMPNCGAVFSSRQALNGHARIHGGTNQVTKARGAIPSGKQKPGGTQSGYCSVKSSPSHSTTSGETDPTTIFPCKECGKVFFKIKSRNAHMKTHRQQEEQQRQKAQKAAFAAEMAATIERTTGPVGAPGLLPLDQLSLIKPIKDVDILDDDVVQQLGGVMEEAEVVDTDLLLDDQDSVLLQGDAEL
For the molecule B1, the “in vitro kinase activity of cyclin A/CDK2” value in the data set with cyclin A/CDK2 is on record as “reduced”. The “in vitro kinase activity of cyclin D1/CDK6” value in the data set on cyclin D1/CDK6 is “reduced”. Also, in the data set on ER, the “interaction with ER” value is recorded as “interact”.
